Measured values published in the DeepSol protein solubility set.

Assay: soluble on expression in E. coli; label from the status in PepcDB or PDB records

Question: Which “soluble on expression in E. coli” value does the source give for “ILGPHHLDEYVRVWAEYDPAACGRIHYKDMYSLLRVISPPLGLGKKCPHRVACKRLLRMDLPVADDNTVHFNSTLMALIRTALDIKIAKGGADKQQMDAELRKEMMAIWPNLSQKTLDLLVTPHKSTDLTVGKIYAAMMIMEYYRQSKAKKLQAMREEQDRTPLMFQRMEPPSPTQEGGPGQNALPSTQLDPGGALMAHESGLKESPSWVTQRAQEMFQKTGTWSPE” here?
Answer: Its value is “not soluble”.

Question: Which “soluble on expression in E. coli” value does the source give for “TQLQLKDSMEKFGALYHSSSLGMLIVIEREIVDANHRALELLSYKKSDLLEQSLDTLCPTTADECRVDAMYRELQHGRNQFEAQMLDSHGETIDCLIEATLIQHNGHTALMLLLQDLS” here?
Answer: The value was “not soluble”.

Question: For “MAHHHHHHMCSTNQKLACCSGDNVFDTKENENDSYPQMVNKQLPPKVLEPIVQNKIVEVPKEVYLEKIVEVPQIKTVERIVEQIRPVIKYKNVYKTKTVYVEKIKNVDRIIYQEKIVEVPQIKTVEKIVEVPVYVDRERIITAPRYMVVEKVIPVLKTTKKESVMEIPEVNCPNIDITQEVESKEEIQIEDLKENQTTSVVHEKDIQLLNDLNIQKMHSSATLNAEADQDTTADTIQNDNFCSTVSCKFLPMYDNFPKMQYSMCNGFPEREKRFSSINIYKSKEEGFPKIRISKTPQIIQRNCYCNYA”, which “soluble on expression in E. coli” value is on record?
Answer: The value was “not soluble”.

Question: With “HYHGIAANPADIQHEFCTSAQSDLNETQWLLAAKSLGLKAKVVRQPIKRLAMATLPALVWCDDGNHFILAKTDGEGEHAQFLIQDLVTNKSAVLSFAEFSNRYSGKLILVASRASVLGSLAKFDFTWFIPAVIK” as the sequence, how does the “soluble on expression in E. coli” value read?
Answer: The value was “not soluble”.

Question: For “MSLSNDGRRQIIESAGRSMAEGYAETLRAIDPTLAINLFSPADEADRLPAPLSSYDGVVVTGSSLHVYRTEPAVTRQIDFLREVFDAGVPVFGSCWGLQLGVVAAGGTVIPNPKRREVPFARSVTLTAAGKTHQMHQSRPAAFDALAIHLDVVSVLPPDSVVTAFNDMAAVQAVEFRSGRSLFWGVQYHPEFELPYMASILRRNASSLVAEAAFSSEGELVEMVDAMDSHGNDGDRVRHPSLLPDDVLDRHTRTIEIANWLKMLSSGEGHHHHHH”, which “soluble on expression in E. coli” value is on record?
Answer: The value was “not soluble”.

Question: Which “soluble on expression in E. coli” value does the source give for “MSAATATRSQLALQSYLDALLQEATFEDLEPLVETPPAPAPAPLKPVALAVAEVATPAPALETLPVDHGFDEFEAAVLEEQVRDARLVPPAPAALLDEPTTLRELPVEPRPHEVIELRVPSAPASVGEPPLLDLPLLDDGRPAWAAEPFECLLFD” here?
Answer: The value was “soluble”.

Question: With “MSFFFLEVLTYFDYDSSMTIKAEIKALAKEIGISKIGFTTADNFDYLEKSLRASVEEGRNSGFEHKVIEDRIYTERLLESAKTIISIGVAYPHKLPQQPQKTPYKRGKITPSSWGLDYHYVVGEKLDRLSKGIEELCRDFPLQQKAMVDTGALVDTAVAQRAGIGFIGKNGLVISKEYGSYMFLGELITNLEIEPDKPVDYDCGDCRRCLDACPTSCLIGDGSMNAKRCLSFQTQDKGMMDIEFRKKIKTVIYGCDICQICCPYNKGINNSPATEIDPELAQPELIPFLSLSNGKFKEKFGMIAGSWRGKNILQRNAIIALANAHDKTAVVKLIEIIDKNNNPIHTATAIWALGEIVKKPNDEILAFMSHLTLKDEDSRKELELIRHKWQF” as the sequence, how does the “soluble on expression in E. coli” value read?
Answer: Its value is “not soluble”.

Question: Which “soluble on expression in E. coli” value does the source give for “MAHHHHHHMDKAKTLEVLRGMKFMQRKEEAKRRAAFEVAQRDEIERQLLHPGTGSSGASGGVSDGGSSALRDRGGGGPVRATVLYDDSFPTHAYSLSRRSFTETLGGGGAIPVAAGLGDTDAHLEGSAVESRVSLKDVGEAQASADAALDDSDVASDEEVADLWGGEDAEGELNDPTAASDRRNQGVKRTRDRRGDRNQHACSDGRFIVKPSLRAPKLPRRLQETVAEQKRQRAEEEGDMNM” here?
Answer: Its value is “soluble”.

Question: Which “soluble on expression in E. coli” value does the source give for “LESYLLDSERSKVIREMNETYTEFNYKETKKNLEGLASSLEHKYLVEASSLDEGLDEILTLHRLKVPGLLRISFLTTNLIELARETARDIMGRVRGWSKGNQVLRWLSCVFLHARNSLSK” here?
Answer: The value was “not soluble”.

Question: With “EIKQNEQRLNAIVQNLVSGVMLINVDKQVIMTNRTMYQILGETEITGKPFYEVIKSFALSQLIDATFETKTMQQKEIILYFPREMILDASVSPILAENGEITGIILLLHDIT” as the sequence, how does the “soluble on expression in E. coli” value read?
Answer: Its value is “not soluble”.

Question: Which “soluble on expression in E. coli” value does the source give for “GSHMTPPHNYLAVIKVVGIGGGGVNAVNRMIEQGLKGVEFIAINTDAQALLMSDADVKLDVGRDSTRGLGAGADPEVGRKAAEDAKDEIEELLRGADMVFVTAGEGGGTGTGGAPVVASIARKLGALTVGVVTRPFSFEGKRRSNQAENGIAALRESCDTLIVIPNDRLLQMGDAAVSLMDAFRSADEVLLNGVQGITDLITTPGLINVDFADVKGIMSGAGTALMGIGSARGEGRSLKAAEIAINSPLLEASMEGAQGVLMSIAGGSDLGLFEINEAASLVQDAAHPDANIIFGTVIDDSLGDEVRVTVIAAGFDVSGPGRKPVMGETGGAHRIESAKAGKLTSTLFEPVDAVSVPLHTNGATLSIGGDDDDVDVPPFMRR” here?
Answer: Its value is “soluble”.

Question: Which “soluble on expression in E. coli” value does the source give for “MAHHHHHHMVGLVKPLFPNTLLTEAQDERRLLTLVLDLDETLVSNRDSRQSAAVLRPYCLHVLNALRHMKELEIVLWTASTKETALPVVDQLHKTGIIFDDIIFRNSIWFTQPIHTKDLRLLGRDMNRVLIVDNSVGCCKLHPRNALLVEDFHGVKRREDAALVNVYYVVDALLRMMRERTMPVSEGLGCLMAEGQLCHPVSYDLPAFFKCIPLTEVPELKRPPVGRFARANTAPPNTSIMQHWVY” here?
Answer: The value was “soluble”.

Question: For “MSSISLKEIIPPQPSTQRNFTTHLSYDPTTNAIAYPCGKSAFVRCLDDGDSKVPPVVQFTGHGSSVVTTVKFSPIKGSQYLCSGDESGKVIVWGWTFDKESNSVEVNVKSEFQVLAGPISDISWDFEGRRLCVVGEGRDNFGVFISWDSGNSLGEVSGHSQRINACHLKQSRPMRSMTVGDDGSVVFYQGPPFKFSASDRTHHKQGSFVRDVEFSPDSGEFVITVGSDRKISCFDGKSGEFLKYIEDDQEPVQGGIFALSWLDSQKFATVGADATIRVWDVTTSKCVQKWTLDKQQLGNQQVGVVATGNGRIISLSLDGTLNFYELGHDEVLKTISGHNKGITALTVNPLISGSYDGRIMEWSSSSMHQDHSNLIVSLDNSKAQEYSSISWDDTLKVNGITKHEFGSQPKVASANNDGFTAVLTNDDDLLILQSFTGDIIKSVRLNSPGSAVSLSQNYVAVGLEEGNTIQVFKLSDLEVSFDLKTPLRAKPSYISISPSETYIAAGDVMGKILLYDLQSREVKTSRWAFRTSKINAISWKPAEKGANEEEIEEDLVATGSLDTNIFIYSVKRPMKIIKALNAHKDGVNNLLWETPSTLVSSGADACIKRWNVVLE”, which “soluble on expression in E. coli” value is on record?
Answer: Its value is “soluble”.

Question: Which “soluble on expression in E. coli” value does the source give for “MLLSIIMPAHNAAAYLERTLALLAQQIAGLEQVEVVAIDDASTDETAKILVEFARTHSWLKAISVDFANVGLARQAGIGLAGGQYVTFLDSDDAFLSGGLAWMVNVLRQRAPDLLMTPLQETGQPLDGTEVAGLFQDVVPLSTQQACDLFCEHQRLQGHFAGKCVTRQILLQHDLAAMECYEDMMTTPHWIVEAKSIVWGEVPVYAYYKRPGSLSDRGQTWRYGKEYIRALQSIEAAFAGRIAVWQTAHLWIGFAKDLLKTSTGRQFLDTQPAVAEKIQSISVWKYLVATQVSCKWKIRFLRVRLRLLEHHHHHH” here?
Answer: Its value is “soluble”.

Question: Which “soluble on expression in E. coli” value does the source give for “MGSDKIHHHHHHMSESYYGLLDEEKVFKDPVHRYIHVRDELIWALIGTKEFQRLRRVRQLGTTFLTFHGAEHTRFNHSLGVYEITRRIIEVFQGRPYWNEEERLLTLCAALLHDIGHGPFSHSFEKVFDTDHEEWTRRMIVGDTEIHNVLLKMGDDFPQKVADVIEKTYPNKLVTSIISSQIDADRMDYLQRDAYYTGVSYGHFDMERILRVMRPMEDQVVIKQSGMHAVEDYIMSRYQMYWQVYFHPVTRSAEVILSKVFKRVKDLYEQGYKFKQEPKHFYSLFEGNMSLDDYLRLDESITMYYFQIWQEEEDRILSDLCVRFINRQLFKYIEFNPNLQMNDWPRLQQLFAQAEIDPEYYLVVDSSSDLPYDFYRPGEEEERLPIHLIMPNGKLRELSRESDVVEAISGKKRTDHKLYFPMDCLTDQSDHKEIKQEILSLLFK” here?
Answer: Its value is “not soluble”.

Question: With “MIDDDGYRPNVGIVICNRQGQVMWARRFGQHSWQFPQGGINPGESAEQAMYRELFEEVGLSRKDVRILASTRNWLRYKLPKRLVRWDTKPVCIGQKQKWFLLQLVSGDAEINMQTSSTPEFDGWRWVSYWYPVRQVVSFKRDVYRRVMKEFASVVMSLQENTPK” as the sequence, how does the “soluble on expression in E. coli” value read?
Answer: The value was “soluble”.

Question: With “MISNRILQTTVDGLKAISRVDLCIVDADKNVAAKTFDNVSECLADAISFIDSPAESQAVNGFQFFKVEDEGNLEYIIMARGTSDDVYMVGKLAAFQIQNLLVAYKERFDKDNFIKNLLLDNLLRVDMYTRAEKLHIETDVKRVVYIIETKHEKDTSALETVRTLFANKTRDFITAVDEKSIILVKEVKGNESYDELDKTADVIIDMLNTEAMSAAHVAYGTIVNDIREVSRSYKEAKMALDVGKIFYSNKNVVAYNRLGIGRLIYQLPIPLCQMFIKEIFEGKAPDDFDDETLSTINKFFENSLNVSETSRQLYIHRNTLVYRLDKIQKITGLDLRVFDDAITFKIALMVVKYMKYMESKDTF” as the sequence, how does the “soluble on expression in E. coli” value read?
Answer: The value was “not soluble”.

Question: With “MGQEYYFCRCGRSKKQPYCDGSHSGTGMKPMSFTAEKDEDAYLCQCKHTANAPFCDGTLEHHHHHH” as the sequence, how does the “soluble on expression in E. coli” value read?
Answer: Its value is “not soluble”.

Question: Which “soluble on expression in E. coli” value does the source give for “MSLKIVRILEKDLPITSPGANAVVDFAGLTTSAVAIVTDAFRDGKPLVGYGFGSIGRWSVGGMLRERFIPRILAVEPASLQDETGNIDPFACWNAAMRNEKPGGHGDRATALGALDMALWDLRAKADGVPLYRLLADRYRDGQADEDVAVYAAGGYYQPGSNYRSLQDELKGYIDRGYNEVKIKIGGAPLAEDMRRIEAAIAVLGDGARLAVDANGRFDLETALAYGRAMSDYGLRWYEEPGDPLDFRLMAVLAEHYDGPLATGENLFSSQDARNLLRYGGMRAERDFVQFDCGLAYGLPDYLKVLDIMRRHGWSPRRLHPHGGHQMSLHLAAGLGLGGNESYPGVFQPLGGFADCSKVENGRVRLPDAPGVGLELKSELKTWLDEAFEEGHHHHHH” here?
Answer: Its value is “not soluble”.

Question: For “MGSDKIHHHHHHMLYRTNPKNGDKLSILGFGAMRLPTKEDGSIDEEKATKMVRYAIDNGVNLVDTAWPYHMGECEPFLARALSEGYREKVKLSTKLPTWAVNTREDMDKFLNAQLEKLNTKQIDYYLLHTLTKASWAKIKDLGVIDFLNSAKEDGRIKNAGFSYHGMQEDFAPIVDDYNWDFCLIQYNYLDEKVQAGTKGLKYAASKGLGVFVMEPLRGGNLAGKTPEEVMEIWNKADKKRTTVEWALRWVWNHPEVTSVLSGMTEPEQLEENIKIAEEGYPNSLTQKELGLIEQAALKYGELLKINCTGCGYCMPCPANVDIPTCFGIYNNLHMFHDETQRFQYFATLSDIFWTNEPHFASQCTNCGICIEKCPQYIQIPEMLEKVVAEFEGPDNDEKMAMVKSVFKM”, which “soluble on expression in E. coli” value is on record?
Answer: The value was “not soluble”.

Question: Which “soluble on expression in E. coli” value does the source give for “MAHHHHHHMAQRVAIPDDCVYEGYGNLYRGDAEVTPPQPIVGARGGNGVLYGTIDSEEALRQLRTALRVDVHPQLKALVQEKKLDEVASSPASLPWLVCRPNALPLRTLPSSFSSGTRYEIERMKSQCRFLRDWLMCHETPEERVEAREFLRTAQRLLQKESVEELLGRTENLLQQLENWPAVVEKARPHIAEWNNDKSLTELREFVGDVLGTDEVCARLSKLTCRFSLLAPLLEEAAFRSAALEEMEQWSSEATVSSLRSLRASIHDWELRVAKDQQNVLDSSQLLLERIAAVRNKRRESAGDLT” here?
Answer: Its value is “soluble”.
